Laboratory results as given in patent US20020177126A1.

What was measured:
[1] = biological target: RSV F glycoprotein (NUF4) (respiratory syncytial virus (RSV)) (UniProt P03420); experiment: BIAcore, Mab vs NUF4, 2:1
[2] = biological target: RSV F glycoprotein (NUF4) (respiratory syncytial virus (RSV)) (UniProt P03420); experiment: ITC, NUF4 titrated into antibody, 35 °C
[3] = biological target: RSV F glycoprotein (NUF4) (respiratory syncytial virus (RSV)) (UniProt P03420); experiment: BIAcore, Mab vs NUF4, 1:1
[4] = biological target: RSV F glycoprotein (NUF4) (respiratory syncytial virus (RSV)) (UniProt P03420); experiment: ITC, NUF4 titrated into antibody

RSV F glycoprotein (NUF4) (respiratory syncytial virus (RSV)), sequence (P03420 26-524): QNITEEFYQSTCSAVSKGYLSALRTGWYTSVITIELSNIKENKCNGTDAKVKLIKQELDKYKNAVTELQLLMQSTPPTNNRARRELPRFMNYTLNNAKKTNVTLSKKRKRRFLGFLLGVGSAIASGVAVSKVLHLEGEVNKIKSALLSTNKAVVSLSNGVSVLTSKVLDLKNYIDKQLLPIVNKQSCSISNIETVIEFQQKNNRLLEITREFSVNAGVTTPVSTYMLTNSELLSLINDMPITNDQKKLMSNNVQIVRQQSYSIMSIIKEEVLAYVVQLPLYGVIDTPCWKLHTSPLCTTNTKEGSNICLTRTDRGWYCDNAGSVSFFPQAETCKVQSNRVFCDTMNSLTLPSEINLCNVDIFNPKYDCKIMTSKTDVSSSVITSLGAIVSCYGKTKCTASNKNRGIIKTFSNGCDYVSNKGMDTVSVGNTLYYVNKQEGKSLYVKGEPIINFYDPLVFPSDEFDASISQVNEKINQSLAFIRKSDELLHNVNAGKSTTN
A4B4 (monoclonal antibody), sequence (VH): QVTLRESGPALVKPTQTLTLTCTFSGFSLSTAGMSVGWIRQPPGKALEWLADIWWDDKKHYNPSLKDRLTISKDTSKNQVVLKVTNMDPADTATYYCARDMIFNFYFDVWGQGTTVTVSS
A4B4 (monoclonal antibody), sequence (VL): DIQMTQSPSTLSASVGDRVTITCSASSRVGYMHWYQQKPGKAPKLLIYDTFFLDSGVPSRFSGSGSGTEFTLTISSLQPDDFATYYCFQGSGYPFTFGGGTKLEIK
SYNAGIS® (antibody), sequence (VH): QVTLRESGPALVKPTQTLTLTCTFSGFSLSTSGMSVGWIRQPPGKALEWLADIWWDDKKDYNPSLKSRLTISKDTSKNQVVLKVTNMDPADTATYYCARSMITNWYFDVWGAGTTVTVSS
SYNAGIS® (antibody), sequence (VL): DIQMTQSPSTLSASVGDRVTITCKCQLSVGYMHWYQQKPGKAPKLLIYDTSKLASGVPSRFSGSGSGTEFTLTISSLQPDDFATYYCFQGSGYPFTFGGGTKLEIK

| Substance | Kd [1] [nM] | koff [1] [s⁻¹] | kon [1] [M⁻¹ s⁻¹] | number in parentheses after KD (fold vs SYNAGIS) [1] [fold] | Ka [2] [M⁻¹] | Kd [3] [nM] | koff [3] [s⁻¹] | kon [3] [M⁻¹ s⁻¹] | number in parentheses after KD (fold vs SYNAGIS) [3] [fold] | Hb in kJ mol^-1 (binding enthalpy) [4] [kcal/mol] | Kd [2] [nM] |
| --- | --- | --- | --- | --- | --- | --- | --- | --- | --- | --- | --- |
| SYNAGIS® (antibody) | 312 | 0.0242 | 78000 | 1 | 1.23e+06 | 8.7 | 0.00265 | 304000 | 1 | 17 | – |
| A4B4 (monoclonal antibody) | 2 | 0.000401 | 203000 | 156 | 2.69e+08 | 0.57 | 0.000282 | 496000 | 15 | 22.2 | 3.7 |
